Reference: IntAct's records for PubMed 35266954

Experiments:
trim1_human MID2 = trim1_human MID2 (UniProt Q9UJV3)
1433t_human YWHAQ = 1433t_human YWHAQ (UniProt P27348)
Sequence of UniProt P27348 (P27348 whole entry): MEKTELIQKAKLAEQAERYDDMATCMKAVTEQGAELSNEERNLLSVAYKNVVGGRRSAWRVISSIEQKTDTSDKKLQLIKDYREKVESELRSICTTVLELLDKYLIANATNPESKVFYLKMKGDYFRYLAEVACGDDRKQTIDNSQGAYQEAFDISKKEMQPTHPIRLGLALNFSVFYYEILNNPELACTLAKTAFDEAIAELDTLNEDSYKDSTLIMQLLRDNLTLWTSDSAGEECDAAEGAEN

Sequence of UniProt Q9UJV3 (Q9UJV3 whole entry): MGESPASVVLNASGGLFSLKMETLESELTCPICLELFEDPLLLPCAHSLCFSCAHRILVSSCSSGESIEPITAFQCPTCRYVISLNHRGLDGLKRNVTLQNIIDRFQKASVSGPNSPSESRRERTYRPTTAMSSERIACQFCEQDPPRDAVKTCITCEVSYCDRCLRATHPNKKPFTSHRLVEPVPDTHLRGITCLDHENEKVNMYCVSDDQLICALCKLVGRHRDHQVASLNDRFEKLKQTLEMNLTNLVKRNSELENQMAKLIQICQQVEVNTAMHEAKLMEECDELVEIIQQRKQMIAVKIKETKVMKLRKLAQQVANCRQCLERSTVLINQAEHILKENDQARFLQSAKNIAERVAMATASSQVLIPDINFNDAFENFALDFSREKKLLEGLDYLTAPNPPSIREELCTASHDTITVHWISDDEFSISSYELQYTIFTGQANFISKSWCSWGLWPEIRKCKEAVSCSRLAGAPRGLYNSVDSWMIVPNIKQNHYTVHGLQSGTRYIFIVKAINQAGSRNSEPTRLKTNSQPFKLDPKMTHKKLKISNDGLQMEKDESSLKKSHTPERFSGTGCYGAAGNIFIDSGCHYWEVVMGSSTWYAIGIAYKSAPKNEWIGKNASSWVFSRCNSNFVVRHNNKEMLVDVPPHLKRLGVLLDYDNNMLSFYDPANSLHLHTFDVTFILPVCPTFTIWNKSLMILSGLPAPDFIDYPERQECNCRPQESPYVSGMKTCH

## Leucine-rich repeat serine/threonine-protein kinase 2 (Homo sapiens), Q5S007 G2019S
trim1_human MID2
  effect of a mutation on the interaction: with no effect

## Leucine-rich repeat serine/threonine-protein kinase 2 (Homo sapiens), Q5S007 R1441C
1433t_human YWHAQ
  effect of a mutation on the interaction: disrupting interaction strength

## Leucine-rich repeat serine/threonine-protein kinase 2 (Homo sapiens), Q5S007 S910A;S935A
1433t_human YWHAQ
  effect of a mutation on the interaction: disrupting interaction strength

## Leucine-rich repeat serine/threonine-protein kinase 2 (Homo sapiens), Q5S007 S910D;S935D
1433t_human YWHAQ
  effect of a mutation on the interaction: disrupting interaction strength
